In US20250206837A1 one finds EC50 data, which are given here for one substance.

This test deals with Recombinant His-tagged mouse CD36.ECD protein (Sino Biological) (mouse) (UniProt Q08857). The experiment in a line: ELISA, coated mouse CD36.ECD (FIG. 1D). A general note: An ELISA detects its analyte on a solid surface through an enzyme-linked reagent.

The EC50 is the midpoint of the concentration-response curve.

Recombinant His-tagged mouse CD36.ECD protein (Sino Biological) (mouse), sequence (Q08857 30-439 limits assumed): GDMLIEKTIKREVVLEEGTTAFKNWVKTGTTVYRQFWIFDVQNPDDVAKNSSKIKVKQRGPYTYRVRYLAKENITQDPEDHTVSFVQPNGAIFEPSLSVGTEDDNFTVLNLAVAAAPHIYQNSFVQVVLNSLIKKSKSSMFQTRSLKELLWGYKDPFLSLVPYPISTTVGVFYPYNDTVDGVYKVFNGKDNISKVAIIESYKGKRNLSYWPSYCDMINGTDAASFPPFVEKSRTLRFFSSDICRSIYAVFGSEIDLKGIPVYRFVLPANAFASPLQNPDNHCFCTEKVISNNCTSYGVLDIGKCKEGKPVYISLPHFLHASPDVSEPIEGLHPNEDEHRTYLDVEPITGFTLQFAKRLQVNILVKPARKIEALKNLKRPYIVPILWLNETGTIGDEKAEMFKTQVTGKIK

In the case of “D2712 (clone CRF D-2712, BD Biosciences, US) (antibody)”, the EC50 stood at 0.93 nM.
